Measurements reported in the supplement of paper PMC9170038.

These sequences were tested on MS2 coat protein (assay: apparent KD of MS2 coat protein; higher = weaker reporter binding). Conditions: Eterna round: R107; input ligand: arginine 13.2 mM.
Experimental: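 RNA-MaP round R107: designed RNA switches with theophylline, tryptophan, arginine or FMN aptamers are transcribed on-chip within common flanks. They are titrated with SNAP-549-labelled MS2 coat protein in RNA-MaP buffer (100 mM Tris pH 7.5, 80 mM KCl, 4 mM MgCl2), without ligand or with the indicated ligand. Median apparent KD per design.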

Row | Sequence | apparent KD of MS2 coat protein
1 | AUAACAUGAGGAUCACCCAUGUAAGCUGAAGGAGCGCUGGAAACAGCAGGUAGGUCGCAGCUACCUACCACCUCAUGAGGUAGGU [(M1)-(M2)-(Arg1)-(Arg2)-(A)'-(M)'-(A)''_Design6] | 16.4 nM
2 | UGUAUGUGAUCUGAUACCAGCUUUGAUAACCUGAGGAUCACCCUGGUAAAGGCGAAAGCCGGCCCUUGGCAGCAGAUCGCAUACU | 47.3 nM
3 | AUGGAACAUGAGGAUCACCCAUGUGAUGAUACCAGAUUAACGCUUAUCCCUUGGCAGCAUGUCCGCCCUCAACCUGUGGCGUAUU [theeternabot_sameState_MS2_Theo_A_50] | 21.5 nM
4 | UAUUUUGGGCGCGAGCCCGGGAUAAUUGAUACCAGUGAAGAAGAGCGCCCUUGGCAGCGAAUCCUAACAUGAGGAUCACCCAUGU [5.Q] | 52.5 nM
5 | AGAGUCAGACAAAAGUCUGGCUCAGCCGAAGGAGCGUCCGAAAGGACAGGUAGGUCGCGGUUGCAUGAGGAUCACCCAUGUUCCU [ArgAS 30 #OpenEnded #AlternativeMS2] | 76.7 nM
6 | UGACAUUGCUCAGAUACCAGACAUGAGGAUCACCCAUGUGCCAAACGUACAAUAAUAAAUGUCCCUUGGCAGCUGAGCAAUGUCU [TheoBX 14 #MS2Left #Theo2] | 13.4 nM
7 | UAUCCACAUGAGGAUCACCCAUGUAGGGAAGGAGCGGUGAAUGCACCAGGUAGGUCGCCUUGCUGAGGACAGCCGGUGGAUUCGU [Exclusion - Arginine A (Freestyle 26)] | 16.7 nM
8 | AGCGAUAUGCAUGAUACCAGCUACAUGAGGAUCACCCAUGUACGUCAGUAAUGACUGUGUAGCCCUUGGCAGCAUAGAGCAUGUA [Exclusion - Theophylline B (Freestyle 13)] | 21.7 nM
9 | CGGUCGGUCGGUCGGUGAUUAUGGGAUGAAGGAGCGUGGGAAGCUACAGGUAGGUCGCAUCCGAAACAUGAGGAUCACCCAUGUU [#21 Same State - Arginine A] | 24.6 nM
10 | ACAUGAGGAUCACCCAUGUACAUAAGGGAAGGAGCGCGGUGAAACGCAGGUAGGUCGCCCAUAAUAACAAACAUUAAAUUCAUGU [LeftA2] | 28 nM
11 | GGGCCUACCUGAAGGAGCGACAUGAGGAUCACCCAUGUCUCCCGUUAUGGGAGUUCUUUAGGUCAGGUAGGUCGCAGGUAGGGCC [#1 Exclusion - Arginine B Attempt #4 (Inspired by Omei)] | 15.3 nM
12 | AUAAGUACGUCAGAUACCAGACAGCCAGACUUACAUGAGGAUCACCCAUGUGGAUGGACGGUCCCUUGGCAGCUGGCCGCAAAAG [Isedgeor] | 172 nM
13 | ACAUGAGGAUCACCCAUGUCAAGGCACGAUACCAGCUGAUCCGGUGGCCCUUGGCAGCGUCACGUUUGGUCCCGCGGAUGACACG [p'pmullin] | 32.1 nM
14 | AAAAUAAAUAAAACGGGUAACAUGAAGGAUACCAGCCAGGAAACUGGCCCUUGGCAGCCUCUACAUGAGGAUCACCCAUGUCCCG [Mat - Same State Theophlline A - Mod of Eli - D14] | 169 nM
15 | AUCGCACCUGGUGAUACCAGCGUUUGCUCGUGACAUGAGGAUCACCCAUGUGGCCAGUGAUGCCCUUGGCAGCAUGGUCGGUGCA [Same State - Theophylline B (Freestyle 26)] | 61.7 nM
16 | ACCUCAUGUAGAAGGAGCGUCAGAAGCUACAGACAUGAGGAUCACCCAUGUUAGUUGAUCUGACAGGUAGGUCGCUACAGCAGGA [#23 Same State - Arginine B] | 24.1 nM
17 | GGACUAACUGGAAGGAGCGACGCGCAGAAACUGCAAUUUCCUCCACACGAGGAUCACCCGUGUCAGGUAGGUCGCCAGUUAGUCG [ArgBX 29] | 19.1 nM
18 | GGUGGCGUGACGGAUACCAGCCACCACCGCAAGGCCACAUGAGGAUCACCCAUGUUGGGUGGCCCUUGGCAGCUGUCGUGCGGCG [#1 Same State - Theophylline B Attempt #20 (HarryS)] | 451 nM
19 | UUAUUUAUAAUGGAUACCAGUGCUGUGGCCCGGCAUCCUGACAUGAGGAUCACCCAUGUGUACCCUUGGCAGCUGUUAUGGGUUU [XTheo B #20] | 20.7 nM
20 | ACAUGAGGAUCACCCAUGUAUUACCGGGAAGGAGCGGCCGCAAGGCCAGGUAGGUCGCUCGGUGUCGUGCUGUAAAGCACGACAA [#1 Same State - Arginine A Attempt #29 (HarryS)] | 11.9 nM
21 | GCUAGGUCUACGGCCGCCACUAGACGUGGGUAAGACAUGAGGAUCACCCAUGUACUACGGGCGAAUAGGACCGGGUAGACCUAGC [SSTB NP+V+V2 #14 Same Structure] | 173 nM
22 | AGUGCUACGUGUAAUCAAAGAGAACCAGAUACCAGAUUAGCAUACAUCCCUUGGCAGCUGCAUACAUGAGGAUCACCCAUGUCAG [theeternabot_exclusion_MS2_Theo_A_31] | 26.5 nM
23 | GGCACCGGGCGAAGGAGCGUGAAGACAUGAGGAUCACCCAUGUAGAGGCCCGGACAGGGUUCGCAGGUAGGUCGCGCGCGGUGCC [#1 Same State - Arginine B Attempt #8 (HarryS)] | 21.2 nM
24 | AACAUACAAUAUUAGGUGGAUAUAAGGCGGCGAGGACCGGUACGGCCGCCACUCGCGUACAUGAGGAUCACCCAUGUCUGAAACU [Same State - Tryptophan A (Freestyle 4)] | 16.6 nM
25 | ACUGUCUUUGAUGAUAUGUAUGGGUCAUUGCGAGGACCGGUACGGCCGCCACUCGGUCCGCCACAUGAGGAUCACCCAUGUCUAU [theeternabot_exclusion_MS2_Trp_A_37] | 56.8 nM
26 | UUAAUGGAGCUUUUAUUUACGAUUUCUGAUACCAGUGUUUCAUUUCACCCUUGGCAGCAGUGACAUGAGGAUCACCCAUGUAAUA [JR_Nu_SSTheophyA_Sub021] | 30.3 nM
27 | CUAUGCAGGUCGGCCGCCACUACACACAUGAGGAUCACCCAUGUAGUUACUGGGUGAAGUGGCAGUAGGACCGGGACCUGCACAU [Brourdmod15] | 190 nM

Same assay, conditions: Eterna round: R107; input ligand: none

Row | Sequence | apparent KD of MS2 coat protein
28 | AUAACAUGAGGAUCACCCAUGUAAGCUGAAGGAGCGCUGGAAACAGCAGGUAGGUCGCAGCUACCUACCACCUCAUGAGGUAGGU [(M1)-(M2)-(Arg1)-(Arg2)-(A)'-(M)'-(A)''_Design6] | 18.5 nM
29 | UGUAUGUGAUCUGAUACCAGCUUUGAUAACCUGAGGAUCACCCUGGUAAAGGCGAAAGCCGGCCCUUGGCAGCAGAUCGCAUACU | 58.5 nM
30 | AGAGUCAGACAAAAGUCUGGCUCAGCCGAAGGAGCGUCCGAAAGGACAGGUAGGUCGCGGUUGCAUGAGGAUCACCCAUGUUCCU [ArgAS 30 #OpenEnded #AlternativeMS2] | 286 nM
31 | UAUCCACAUGAGGAUCACCCAUGUAGGGAAGGAGCGGUGAAUGCACCAGGUAGGUCGCCUUGCUGAGGACAGCCGGUGGAUUCGU [Exclusion - Arginine A (Freestyle 26)] | 12.2 nM
32 | CGGUCGGUCGGUCGGUGAUUAUGGGAUGAAGGAGCGUGGGAAGCUACAGGUAGGUCGCAUCCGAAACAUGAGGAUCACCCAUGUU [#21 Same State - Arginine A] | 21 nM
33 | ACAUGAGGAUCACCCAUGUACAUAAGGGAAGGAGCGCGGUGAAACGCAGGUAGGUCGCCCAUAAUAACAAACAUUAAAUUCAUGU [LeftA2] | 14.3 nM
34 | GGGCCUACCUGAAGGAGCGACAUGAGGAUCACCCAUGUCUCCCGUUAUGGGAGUUCUUUAGGUCAGGUAGGUCGCAGGUAGGGCC [#1 Exclusion - Arginine B Attempt #4 (Inspired by Omei)] | 12.6 nM
35 | ACCUCAUGUAGAAGGAGCGUCAGAAGCUACAGACAUGAGGAUCACCCAUGUUAGUUGAUCUGACAGGUAGGUCGCUACAGCAGGA [#23 Same State - Arginine B] | 32.3 nM
36 | GGACUAACUGGAAGGAGCGACGCGCAGAAACUGCAAUUUCCUCCACACGAGGAUCACCCGUGUCAGGUAGGUCGCCAGUUAGUCG [ArgBX 29] | 16.7 nM
37 | GGUGGCGUGACGGAUACCAGCCACCACCGCAAGGCCACAUGAGGAUCACCCAUGUUGGGUGGCCCUUGGCAGCUGUCGUGCGGCG [#1 Same State - Theophylline B Attempt #20 (HarryS)] | 263 nM
38 | GGGACAUGAGGAUCACCCAUGUACCGGUCCCGAGGACCGGUACGGCCGCCACUCGAUGACCUCAUAGUCUGCUGGAGCAGCAGAC [Usesedarin] | 54.6 nM
39 | ACAUGAGGAUCACCCAUGUAUUACCGGGAAGGAGCGGCCGCAAGGCCAGGUAGGUCGCUCGGUGUCGUGCUGUAAAGCACGACAA [#1 Same State - Arginine A Attempt #29 (HarryS)] | 10.2 nM
40 | GCUAGGUCUACGGCCGCCACUAGACGUGGGUAAGACAUGAGGAUCACCCAUGUACUACGGGCGAAUAGGACCGGGUAGACCUAGC [SSTB NP+V+V2 #14 Same Structure] | 321 nM
41 | GGCACCGGGCGAAGGAGCGUGAAGACAUGAGGAUCACCCAUGUAGAGGCCCGGACAGGGUUCGCAGGUAGGUCGCGCGCGGUGCC [#1 Same State - Arginine B Attempt #8 (HarryS)] | 14.5 nM
42 | CUAUGCAGGUCGGCCGCCACUACACACAUGAGGAUCACCCAUGUAGUUACUGGGUGAAGUGGCAGUAGGACCGGGACCUGCACAU [Brourdmod15] | 480 nM

Same assay, conditions: Eterna round: R107; input ligand: theophylline 20 uM

Row | Sequence | apparent KD of MS2 coat protein
43 | AUAACAUGAGGAUCACCCAUGUAAGCUGAAGGAGCGCUGGAAACAGCAGGUAGGUCGCAGCUACCUACCACCUCAUGAGGUAGGU [(M1)-(M2)-(Arg1)-(Arg2)-(A)'-(M)'-(A)''_Design6] | 24.4 nM
44 | UGUAUGUGAUCUGAUACCAGCUUUGAUAACCUGAGGAUCACCCUGGUAAAGGCGAAAGCCGGCCCUUGGCAGCAGAUCGCAUACU | 56.1 nM
45 | AUGGAACAUGAGGAUCACCCAUGUGAUGAUACCAGAUUAACGCUUAUCCCUUGGCAGCAUGUCCGCCCUCAACCUGUGGCGUAUU [theeternabot_sameState_MS2_Theo_A_50] | 36 nM
46 | UAUUUUGGGCGCGAGCCCGGGAUAAUUGAUACCAGUGAAGAAGAGCGCCCUUGGCAGCGAAUCCUAACAUGAGGAUCACCCAUGU [5.Q] | 65.4 nM
47 | AGAGUCAGACAAAAGUCUGGCUCAGCCGAAGGAGCGUCCGAAAGGACAGGUAGGUCGCGGUUGCAUGAGGAUCACCCAUGUUCCU [ArgAS 30 #OpenEnded #AlternativeMS2] | 399 nM
48 | UGACAUUGCUCAGAUACCAGACAUGAGGAUCACCCAUGUGCCAAACGUACAAUAAUAAAUGUCCCUUGGCAGCUGAGCAAUGUCU [TheoBX 14 #MS2Left #Theo2] | 17.3 nM
49 | UAUCCACAUGAGGAUCACCCAUGUAGGGAAGGAGCGGUGAAUGCACCAGGUAGGUCGCCUUGCUGAGGACAGCCGGUGGAUUCGU [Exclusion - Arginine A (Freestyle 26)] | 19 nM
50 | AGCGAUAUGCAUGAUACCAGCUACAUGAGGAUCACCCAUGUACGUCAGUAAUGACUGUGUAGCCCUUGGCAGCAUAGAGCAUGUA [Exclusion - Theophylline B (Freestyle 13)] | 35.4 nM
51 | CGGUCGGUCGGUCGGUGAUUAUGGGAUGAAGGAGCGUGGGAAGCUACAGGUAGGUCGCAUCCGAAACAUGAGGAUCACCCAUGUU [#21 Same State - Arginine A] | 26.8 nM
52 | ACAUGAGGAUCACCCAUGUACAUAAGGGAAGGAGCGCGGUGAAACGCAGGUAGGUCGCCCAUAAUAACAAACAUUAAAUUCAUGU [LeftA2] | 18.6 nM
53 | GGGCCUACCUGAAGGAGCGACAUGAGGAUCACCCAUGUCUCCCGUUAUGGGAGUUCUUUAGGUCAGGUAGGUCGCAGGUAGGGCC [#1 Exclusion - Arginine B Attempt #4 (Inspired by Omei)] | 17 nM
54 | AUAAGUACGUCAGAUACCAGACAGCCAGACUUACAUGAGGAUCACCCAUGUGGAUGGACGGUCCCUUGGCAGCUGGCCGCAAAAG [Isedgeor] | 128 nM
55 | ACAUGAGGAUCACCCAUGUCAAGGCACGAUACCAGCUGAUCCGGUGGCCCUUGGCAGCGUCACGUUUGGUCCCGCGGAUGACACG [p'pmullin] | 139 nM
56 | AAAAUAAAUAAAACGGGUAACAUGAAGGAUACCAGCCAGGAAACUGGCCCUUGGCAGCCUCUACAUGAGGAUCACCCAUGUCCCG [Mat - Same State Theophlline A - Mod of Eli - D14] | 142 nM
